These results are taken from PMC12339479.

As usually defined, the Kd is a measure of binding affinity in units of concentration. Low values mean tighter binding, high ones weaker binding. One may read the kon as the second-order rate constant of association. A high value points to fast association.

For the test, the target named is Chicken ACE2-hFc (soluble chicken ACE2 residues 18-740 fused to human IgG1 Fc) (chicken (Gallus gallus)). As to the kind of experiment: SPR. Background: In SPR one partner is held on a chip, and binding of the other changes the refractive index at the surface.
Consider “SARS-CoV-2 Gamma (P.1) RBD monomer (from UniProt P0DTC2) (domain or fragment)”, for which the Kd came to 44.7 µM and the kon came out at 4200 M⁻¹ s⁻¹.

For the substance “SARS-CoV-2 Alpha (B.1.1.7) RBD monomer (from UniProt P0DTC2) (domain or fragment)”, the Kd was 409 µM and the kon is 300 M⁻¹ s⁻¹.

“SARS-CoV-2 Omicron BA.2 RBD monomer (from UniProt P0DTC2) (domain or fragment)” came in with a Kd of 0.334 µM and a kon of 258000 M⁻¹ s⁻¹.

On to “SARS-CoV-2 Omicron BA.5 RBD monomer (from UniProt P0DTC2) (domain or fragment)”, for which the Kd was determined as 0.375 µM. In other words, the sub-micromolar range.
